Assay results: article PMC12148371 (iScience, 2025)

Molecular target: EBOV-GP-RBD without the glycan cap and MLD, displayed on the cell surface (EGPdcm, wild type) (Zaire ebolavirus)
Assay: flow cytometry on cells

For “NPC1-His (from UniProt O15118 23-1278) (receptor)”, the percent NPC1 binding (positive cells) was 94.7% and the percent NPC1 binding (positive cells), without competitor was 76.4%.
